# Measurements as given in the supplement of paper PMC11246515.
# ± gives the standard deviation of the averaged measurements.
# Experiment: total protein half-life in vivo (active degradation + dilution); higher = more stable protein
# [1] = wild type E. coli NCM3722, growth: N-lim chemostat, doubling time 6 h
# [2] = E. coli NCM3722 delta-clpP delta-lon delta-hslV, growth: N-lim chemostat, doubling time 6 h
# [3] = E. coli NCM3722 delta-clpP, growth: N-lim chemostat, doubling time 6 h
# [4] = E. coli NCM3722 delta-hslV, growth: N-lim chemostat, doubling time 6 h
# [5] = E. coli NCM3722 delta-lon, growth: N-lim chemostat, doubling time 6 h
# [6] = E. coli NCM3722 delta-smpB, growth: N-lim chemostat, doubling time 6 h
# [7] = wild type E. coli NCM3722, growth: C-lim chemostat, doubling time 3 h
# [8] = wild type E. coli NCM3722, growth: C-lim chemostat, doubling time 6 h
# [9] = wild type E. coli NCM3722, growth: C-lim chemostat, doubling time 12 h
# [10] = wild type E. coli NCM3722, growth: N-lim chemostat, doubling time 12 h
# [11] = wild type E. coli NCM3722, growth: P-lim chemostat, doubling time 6 h
# [12] = wild type E. coli NCM3722, growth: P-lim chemostat, doubling time 12 h
sequence,measurement,setting,value
MEFSFSPKRLVVAVAAALPLMASAADTPSTATARKGFAGYDHPNQYLVKPATTIADNMMPVMQHPAQDKETQQKLAELEKKTGKKPNVVVFLLDDVGWMDVGFNGGGVAVGNPTPDIDAVASQGLILTSAYSQPSSSPTRATILTGQYSIHHGILMPPMYGQPGGLQGLTTLPQLLHDQGYVTQAIGKWHMGENKESQPQNVGFDDFRGFNSVSDMYTEWRDVHVNPEVALSPDRSEYIKQLPFSKDDVHAVRGGEQQAIADITPKYMEDLDQRWMDYGVKFLDKMAKSDKPFFLYYGTRGCHFDNYPNAKYAGSSPARTSYGDCMVEMNDVFANLYKTLEKNGQLDNTLIVFTSDNGPEAEVPPHGRTPFRGAKGSTWEGGVRVPTFVYWKGMIQPRKSDGIVDLADLFPTALDLAGHPGAKVANLVPKTTFIDGVDQTSFFLGTNGQSNRKAEHYFLNGKLAAVRMDEFKYHVLIQQPYAYTQSGYQGGFTGTVMQTAGSSVFNLYTDPQESDSIGVRHIPMGVPLQTEMHAYMEILKKYPPRAQIKSD,total protein half-life in vivo,[1],3.56 h
MLKIFNTLTRQKEEFKPIHAGEVGMYVCGITVYDLCHIGHGRTFVAFDVVARYLRFLGYKLKYVRNITDIDDKIIKRANENGESFVAMVDRMIAEMHKDFDALNILRPDMEPRATHHIAEIIELTEQLIAKGHAYVADNGDVMFDVPTDPTYGVLSRQDLDQLQAGARVDVVDDKRNPMDFVLWKMSKEGEPSWPSPWGAGRPGWHIECSAMNCKQLGNHFDIHGGGSDLMFPHHENEIAQSTCAHDGQYVNYWMHSGMVMVDREKMSKSLGNFFTVRDVLKYYDAETVRYFLMSGHYRSQLNYSEENLKQARAALERLYTALRGTDKTVAPAGGEAFEARFIEAMDDDFNTPEAYSVLFDMAREVNRLKAEDMAAANAMASHLRKLSAVLGLLEQEPEAFLQSGAQADDSEVAEIEALIQQRLDARKAKDWAAADAARDRLNEMGIVLEDGPQGTTWRRK,total protein half-life in vivo,[2],5.28 ± 0.8 h
same,total protein half-life in vivo,[3],4.75 ± 0.24 h
same,total protein half-life in vivo,[4],4.85 ± 0.22 h
same,total protein half-life in vivo,[5],5.1 ± 0.24 h
same,total protein half-life in vivo,[6],4.97 ± 0.14 h
same,total protein half-life in vivo,[7],3.24 ± 0.29 h
same,total protein half-life in vivo,[8],5.41 ± 0.088 h
same,total protein half-life in vivo,[9],9.907 ± 0.043 h
same,total protein half-life in vivo,[1],4.84 ± 0.17 h
same,total protein half-life in vivo,[10],7.97 ± 0.15 h
same,total protein half-life in vivo,[11],6.14 ± 0.47 h
same,total protein half-life in vivo,[12],11.5 ± 0.18 h
MILERVEIVGFRGINRLSLMLEQNNVLIGENAWGKSSLLDALTLLLSPESDLYHFERDDFWFPPGDINGREHHLHIILTFRESLPGRHRVRRYRPLEACWTPCTDGYHRIFYRLEGESAEDGSVMTLRSFLDKDGHPIDVEDINDQARHLVRLMPVLRLRDARFMRRIRNGTVPNVPNVEVTARQLDFLARELSSHPQNLSDGQIRQGLSAMVQLLEHYFSEQGAGQARYRLMRRRASNEQRSWRYLDIINRMIDRPGGRSYRVILLGLFATLLQAKGTLRLDKDARPLLLIEDPETRLHPIMLSVAWHLLNLLPLQRIATTNSGELLSLTPVEHVCRLVRESSRVAAWRLGPSGLSTEDSRRISFHIRFNRPSSLFARCWLLVEGETETWVINELARQCGHHFDAEGIKVIEFAQSGLKPLVKFARRMGIEWHVLVDGDEAGKKYAATVRSLLNNDREAEREHLTALPALDMEHFMYRQGFSDVFHRMAQIPENVPMNLRKIISKAIHRSSKPDLAIEVAMEAGRRGVDSVPTLLKKMFSRVLWLARGRAD,total protein half-life in vivo,[2],6.44 ± 0.23 h
same,total protein half-life in vivo,[3],2.21 h
MKICLIDETGTGDGALSVLAARWGLEHDEDNLMALVLTPEHLELRKRDEPKLGGIFVDFVGGAMAHRRKFGGGRGEAVAKAVGIKGDYLPDVVDATAGLGRDAFVLASVGCRVRMLERNPVVAALLDDGLARGYADAEIGGWLQERLQLIHASSLTALTDITPRPQVVYLDPMFPHKQKSALVKKEMRVFQSLVGPDLDADGLLEPARLLATKRVVVKRPDYAPPLANVATPNAVVTKGHRFDIYAGTPV,total protein half-life in vivo,[2],6.34 ± 1.2 h
same,total protein half-life in vivo,[3],5.05 ± 0.67 h
same,total protein half-life in vivo,[4],5.29 h
same,total protein half-life in vivo,[5],5.92 ± 0.037 h
same,total protein half-life in vivo,[6],5.27 ± 0.32 h
same,total protein half-life in vivo,[9],11.1 ± 1 h
same,total protein half-life in vivo,[1],5.3 ± 0.28 h
same,total protein half-life in vivo,[10],11.5 ± 1.8 h
same,total protein half-life in vivo,[12],12.9 ± 0.86 h
MKRTKSIRHASFRKNWSARHLTPVALAVATVFMLAGCEKSDETVSLYQNADDCSAANPGKSAECTTAYNNALKEAERTAPKYATREDCVAEFGEGQCQQAPAQAGMAPENQAQAQQSSGSFWMPLMAGYMMGRLMGGGAGFAQQPLFSSKNPASPAYGKYTDATGKNYGAAQPGRTMTVPKTAMAPKPATTTTVTRGGFGESVAKQSTMQRSATGTSSRSMGG [P0ADT2],total protein half-life in vivo,[2],3.82 ± 0.98 h
same,total protein half-life in vivo,[3],4.17 ± 0.3 h
same,total protein half-life in vivo,[4],3.89 ± 0.12 h
same,total protein half-life in vivo,[5],3.69 ± 0.096 h
same,total protein half-life in vivo,[6],3.22 ± 0.56 h
same,total protein half-life in vivo,[7],1.83 ± 0.4 h
same,total protein half-life in vivo,[8],3.71 ± 0.29 h
same,total protein half-life in vivo,[9],5.86 ± 0.6 h
same,total protein half-life in vivo,[1],4.08 ± 0.88 h
same,total protein half-life in vivo,[10],7.11 ± 0.26 h
same,total protein half-life in vivo,[11],3.45 ± 0.38 h
same,total protein half-life in vivo,[12],7.48 ± 0.2 h
MRKQWLGICIAAGMLAACTSDDGQQQTVSVPQPAVCNGPIVEISGADPRFEPLNATANQDYQRDGKSYKIVQDPSRFSQAGLAAIYDAEPGSNLTASGEAFDPTQLTAAHPTLPIPSYARITNLANGRMIVVRINDRGPYGNDRVISLSRAAADRLNTSNNTKVRIDPIIVAQDGSLSGPGMACTTVAKQTYALPAPPDLSGGAGTSSVSGPQGDILPVSNSTLKSEDPTGAPVTSSGFLGAPTTLAPGVLEGSEPTPAPQPVVTAPSTTPATSPAMVTPQAVSQSASGNFMVQVGAVSDQARAQQYQQQLGQKFGVPGRVTQNGAVWRIQLGPFASKAEASTLQQRLQTEAQLQSFITTAQ,total protein half-life in vivo,[2],5.56 ± 0.12 h
same,total protein half-life in vivo,[3],5.78 ± 0.37 h
same,total protein half-life in vivo,[4],6.5 ± 0.56 h
same,total protein half-life in vivo,[5],6.29 ± 0.38 h
same,total protein half-life in vivo,[6],5.65 ± 0.12 h
same,total protein half-life in vivo,[7],3.1 ± 0.15 h
same,total protein half-life in vivo,[8],5.89 ± 0.42 h
same,total protein half-life in vivo,[1],6.17 ± 0.07 h
same,total protein half-life in vivo,[10],13.4 ± 2.2 h
same,total protein half-life in vivo,[12],12.38 ± 0.038 h
MLEDLKRQVLEANLALPKHNLVTLTWGNVSAVDRERGVFVIKPSGVDYSVMTADDMVVVSIETGEVVEGTKKPSSDTPTHRLLYQAFPSIGGIVHTHSRHATIWAQAGQSIPATGTTHADYFYGTIPCTRKMTDAEINGEYEWETGNVIVETFEKQGIDAAQMPGVLVHSHGPFAWGKNAEDAVHNAIVLEEVAYMGIFCRQLAPQLPDMQQTLLDKHYLRKHGAKAYYGQ,total protein half-life in vivo,[8],2.27 h
same,total protein half-life in vivo,[9],9.82 h
MSESLHLTRNGSILEITLDRPKANAIDAKTSFEMGEVFLNFRDDPQLRVAIITGAGEKFFSAGWDLKAAAEGEAPDADFGPGGFAGLTEIFNLDKPVIAAVNGYAFGGGFELALAADFIVCADNASFALPEAKLGIVPDSGGVLRLPKILPPAIVNEMVMTGRRMGAEEALRWGIVNRVVSQAELMDNARELAQQLVNSAPLAIAALKEIYRTTSEMPVEEAYRYIRSGVLKHYPSVLHSEDAIEGPLAFAEKRDPVWKGR,total protein half-life in vivo,[6],3.5 h
same,total protein half-life in vivo,[7],2.96 ± 0.038 h
same,total protein half-life in vivo,[8],4.96 ± 0.18 h
same,total protein half-life in vivo,[9],8.84 ± 0.32 h
same,total protein half-life in vivo,[10],5.66 h
same,total protein half-life in vivo,[11],5.25 ± 0.44 h
same,total protein half-life in vivo,[12],10.5 ± 0.97 h
MDHSLNSLNNFDFLARSFARMHAEGRPVDILAVTGNMDEEHRTWFCARYAWYCQQMMQARELELEH,total protein half-life in vivo,[2],2.86 h
MQASQFSAQVLDWYDKYGRKTLPWQIDKTPYKVWLSEVMLQQTQVATVIPYFERFMARFPTVTDLANAPLDEVLHLWTGLGYYARARNLHKAAQQVATLHGGKFPETFEEVAALPGVGRSTAGAILSLSLGKHFPILDGNVKRVLARCYAVSGWPGKKEVENKLWSLSEQVTPAVGVERFNQAMMDLGAMICTRSKPKCSLCPLQNGCIAAANNSWALYPGKKPKQTLPERTGYFLLLQHEDEVLLAQRPPSGLWGGLYCFPQFADEESLRQWLAQRQIAADNLTQLTAFRHTFSHFHLDIVPMWLPVSSFTGCMDEGNALWYNLAQPPSVGLAAPVERLLQQLRTGAPV,total protein half-life in vivo,[3],5.73 ± 0.018 h
same,total protein half-life in vivo,[4],4.02 ± 0.7 h
same,total protein half-life in vivo,[5],3.65 ± 0.12 h
same,total protein half-life in vivo,[6],3.52 ± 0.35 h
same,total protein half-life in vivo,[7],3.86 h
same,total protein half-life in vivo,[8],4.84 ± 0.14 h
same,total protein half-life in vivo,[9],7.51 ± 0.26 h
same,total protein half-life in vivo,[1],4.8 ± 1.8 h
same,total protein half-life in vivo,[10],6.05 h
same,total protein half-life in vivo,[11],4.89 ± 0.49 h
same,total protein half-life in vivo,[12],8.5 ± 0.85 h
